# Target: 17T2 mAb de-glycosylated with PNGase F (human)
# Assay: SPR
# Sequence of 17T2 mAb de-glycosylated with PNGase F (human) (heavy, as listed by the source, chain 1 of 2): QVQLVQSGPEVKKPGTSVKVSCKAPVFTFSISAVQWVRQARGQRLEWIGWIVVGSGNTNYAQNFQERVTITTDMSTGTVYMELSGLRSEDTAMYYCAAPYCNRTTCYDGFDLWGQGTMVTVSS
# Sequence of 17T2 mAb de-glycosylated with PNGase F (human) (light, as listed by the source, chain 2 of 2): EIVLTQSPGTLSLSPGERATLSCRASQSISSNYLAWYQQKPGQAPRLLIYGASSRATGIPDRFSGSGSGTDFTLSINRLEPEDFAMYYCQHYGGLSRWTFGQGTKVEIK
substance,measurement,value
"SARS-CoV-2 spike receptor binding domain, ancestral WH1 (from UniProt P0DTC2 319-541) (domain or fragment)",Kd,0.0749 nM
same,koff,0.00013 s⁻¹
same,kon,1.74e+06 M⁻¹ s⁻¹

# Reference: publication PMC10844294
